Laboratory results reported in paper doi:10.1101/2021.06.09.447716.

Biological target: BACE1-GFP (UniProt P56817)
Assay: co-IP

UniProt P56817, sequence (P56817 46-501): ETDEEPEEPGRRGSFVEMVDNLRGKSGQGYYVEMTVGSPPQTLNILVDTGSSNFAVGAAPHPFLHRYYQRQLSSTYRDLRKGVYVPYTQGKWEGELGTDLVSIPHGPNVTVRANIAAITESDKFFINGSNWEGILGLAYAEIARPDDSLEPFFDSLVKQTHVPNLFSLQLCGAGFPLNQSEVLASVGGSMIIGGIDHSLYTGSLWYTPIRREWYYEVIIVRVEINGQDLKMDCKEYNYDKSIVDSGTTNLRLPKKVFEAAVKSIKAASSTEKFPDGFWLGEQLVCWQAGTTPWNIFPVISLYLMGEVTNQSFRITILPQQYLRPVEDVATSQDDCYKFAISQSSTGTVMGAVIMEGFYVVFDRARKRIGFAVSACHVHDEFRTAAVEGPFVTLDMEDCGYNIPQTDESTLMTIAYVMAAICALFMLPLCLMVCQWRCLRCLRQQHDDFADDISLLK

Bin1-KR (neuronal Bin1-MYC with the LOAD mutation K358R, rs138047593) (from UniProt O08539-1 1-588) (natural protein)
reduction of co-immunoprecipitated Bin1 against Bin1-WT: 65%
